The test system of one series is GP2+M cells of PPs. In words: Ligated intestinal loop assay with FITC-RAP. The series is classed as in vivo, C57BL/6 mice. Here is the method:
(§1) The tissues collected from the above dynamic distribution analysis were homogenized using a 3-fold volume of 0.1 mol/L phosphate buffer (pH 7.4) and centrifuged at 15,000 rpm for 10 min. Especially, the PP collected from the ligated loop assay model were homogenized using 200 μL PBS and centrifuged at 15,000 rpm for 10 min. The supernatant was collected and stored at −20° C. for chromatographic analysis. The separation was achieved on a TSK GMPWXL column (164× 7.8 mm i.d., 10 μm) system operated at 40° C. using an Agilent-1100 HPLC system equipped with FLD. Ammonium acetate aqueous solution (20 mM) was used as a mobile phase at a flow rate of 0.6 mL/min. The excitation wavelength and emission wavelength of FLD were 495 and 515 nm, respectively.
C57BL/6 wild-type (WT) mice, and GP2^−/− C57BL/6 mice were anesthetized using isoflurane. To prepare ligated intestinal loops, incision was made near the linea alba of the abdomen to expose the small intestine. FITC-RAP (10 mg/mL) in 100 μl PBS was injected into the ligated intestinal loop. The mice were kept under anesthesia for 1 h after the injection. PPs were excised and rinsed with PBS 5 times. The cleaned PPs were photographed using an IVIS Lumina XR and then processed for HPGPC-FLD analysis, whole-mount staining, sectioning, and further microscopic analysis.
Frozen sections of PPs from the ligated loop assay were washed three times with PBS and blocked with 5% normal goat serum in PBS for 1 h. Sections were incubated with anti-mouse GP2, anti-mouse NKM 16-2-4 antibody, or anti-mouse CD11c antibody overnight at 4° C. PPs sections were washed three times with PBS and then treated with Alexa Fluor647 secondary goat anti-rabbit, […] anti-rat antibodies for 1 h at RT, followed by three consecutive PBS washes. The cell nuclei were stained with 1 μg/mL 4′,6-diamidino-2-phenylindole (DAPI) for 15 min. Sections were washed three times with PBS and mounted with an anti-fade mounting medium. Images were captured with a Leica TCS SP8 confocal laser scanning microscope.
For whole-mount staining, mouse PPs were isolated from the small intestine and washed 3 times with 1×ice-cold PBS. The PPs were fixed in 4% paraformaldehyde overnight at 4° C. and then permeabilized with 0.1% Triton X-100 for 30 min. PPs were blocked with 5% normal goat serum in PBS for 1 h. A primary rat anti-mouse glycoprotein 2 (GP2) and 1 μg/ml DAPI in PBS were used to incubate PPs for 1 h at RT, followed by rinsing 3×5 mins with PBS. The second goat anti-rat IgG antibody conjugated with Alexa647 was further stained for 1 h at RT. PPs were washed 3×5 mins with PBS and mounted with the anti-fade reagent. Images were analyzed and captured by a confocal laser microscope (SP8, Leica Microsystems).
For the detection of RAP-induced immune responses, tumor tissues and PPs were minced into small pieces and grounded with a syringe plug. For the isolation and identification of M cell, PPs and small intestine segments collected from FITC-RAP-treated mice were incubated in PBS with 0.5 mM EDTA and stirred at 37° C. for 20 min. For the isolation and detection of dendritic cells, PPs collected from WT mice and GP2--mice were ground with a syringe plug. Tissues and cells were collected and rinsed with ice-cold PBS at 400 g for 5 min, followed by filtering through a 70 μm filter. Single cell suspensions were prepared for antibody staining. Cells were incubated with antibodies or the matching isotypes for 25 min at RT. The stained cells were rinsed twice and re-suspended in PBS and analyzed by FACSAria III (BD Biosciences). Data analysis was performed with FlowJo V10 software.

For series [1], the system named is GP2+M cell (M-like cells). The experiment in a line: In vitro M-cell-like model (Caco-2 / Raji B co-culture on transwell inserts). It counts as cell-based, human. The settings on record: confocal microscopy. Here is the method: Caco-2 cells were grown in flasks in 10% (v/v) fetal calf serum DMEM at 37° C. under a 10% CO2 water-saturated atmosphere. Caco-2 cells were grown on Transwell polyester inserts (0.3 μm pore size, 12 mm diameter, Corning Costar) coated with 100 μg/mL matrigel basement membrane matrix phenol red-free (Becton Dickinson), prepared in pure cold DMEM without phenol red. Raji B cells (5× 10^5) were resuspended in DMEM and added to the basolateral chamber of 7-day-old Caco-2 cell monolayers. The co-cultures were maintained for 5 days. Mono-culture of Caco-2 cells, cultivated as above but without the Raji B cells, were used as control. […] The transportation function of this in vitro M cell model was first validated using nanoparticle. FITC-RAP (2 mg/mL) in 400 μl DMEM were added to the upper layers of mono-culture and co-culture inserts and then incubated for 2 h at 37° C. under 5% CO2. All inserts were removed, and lower solutions were collected for chromatographic analysis. The lower solution collected from the co-culture group treated with unlabeled RAP was further used to treat RAW264.7 cells in a 96-well plate for 24 h, and the supernatants were sampled for IL-6 and IL-12 detection using ELISA kits.
Three co-culture and mono-cultures inserts were used to detect the presence of M-like cells by immunofluorescence. […]

Series [2] is described as follows: Dynamic distribution of FITC-labeled polysaccharides in the gastrointestinal system and organs of mice after gavage. The series is classed as in vivo. Particulars: 0 to 5 h after gavage. Here is the method: FTIC-RAP (10 mg in 1 mL distilled water) was orally administrated to each mouse (n=6). After the mice were sacrificed at 0, 1, 2, 3, 4, and 5 h after oral administration, blood and major tissues, including liver, spleen, kidney, stomach, small intestine, mesenteric lymph nodes (MLN), Peyer's patches (PPs), caecum, and colon, were collected and imaged using an IVIS Lumina XR in vivo imaging system (PerkinElmer) immediately. The molecular size of FITC-RAP was monitored using high-performance gel-permeation chromatography. For Western blotting (WB), PPs from different groups were collected at other time points (0, 1, 2, 3, and 4 h after oral administration) and prepared for WB. For ELISA assay, PPs were collected 24 hours after RAP treatment, then homogenized and centrifugated at 15,000 rpm for 10 min to obtain the supernatant for cytokine production assessment using ELISA kits. Similarly, the dynamic distribution of FITC-DOP control in MLN and PPs was investigated.
as §1
The intestinal contents of BALB/C mice that had received oral doses of RAP (100 mg/kg/mice) were collected at 0, 1, 2, 3, 4, 5 h after oral administration (n=6 each group) for carbohydrates detection by the phenol-sulfuric acid method. […] The plate was then cooled to RT and wiped dry to detect at A490 nm by a microplate reader. […]

Series [3] concerns F4/80+ macrophages / CD34+ cells in the bone marrow. The settings on record: mouse, in vivo; cited from earlier work.
Series [4] has the same test system. The settings on record: mouse, in vivo, po.
The test system of a further series is human GP2+M cells. The experiment in a line: Ligated loop assay on human distal ileum explants with PPs. The method, then: Twenty volunteers who needed surgery were enrolled in this study. The age of the participants ranged from 20 to 50 years. All distal ilea of the small intestine were collected after their surgeries. Twenty samples of the small intestine with PP were used in this study. In brief, the small intestines with PPs were stored in ice-cold PBS with 5% FBS after surgery. The small intestine segment was ligated with a surgical suture for the ligated loop assay. It then was injected with 10 ml FITC-RAP solution (5 mg/ml) followed by incubation at 37° C. under 5% CO2 for 2 h. PPs were collected for whole-mount staining, preparation of frozen sections, and immunofluorescence staining.

The mark [5] stands for this setting: C57BL/6 wild-type mice, 1 hr after injection.

With “FITC-RAP: RAP labeled with fluorescein isothiocyanate isomer I (FITC)”, in the series with GP2+M cells of PPs (setting [5]), the “integrity in PPs (HPGPC-FLD)” value is “undegraded form” and the “localization in gut loop (whole animal imaging)” value is “concentrated in regions associated with PPs”. Besides, in the series on GP2+M cells of PPs (GP2-/- mice, IVIS imaging, HPGPC-FLD), the “positive signals of FITC-RAP in PPs, GP2-/- versus WT mice” value is given as “significantly decreased”. Further, in the series on GP2+M cells of PPs (wild-type mice), the “internalization into M cells (whole-mount confocal images)” value is given as “internalized into M cells” and the “uptake by GP2+M cells versus other intestinal epithelial cells (flow cytometry)” value is “GP2+M cells instead of other intestinal epithelial cells accumulated FITC-RAP”. Moreover, in the series with GP2+M cells of PPs (wild-type mice, confocal microscopy), the “co-localization with GP2 receptors on the M cell apical surface (frozen sections)” value is on record as “precisely co-localized”. The “internalization by GP2+M cell in co-culture inserts” value in series [1] is “internalized by GP2+M cell”. In addition, the “fluorescence in the liver, kidney, spleen, mesenteric lymph nodes (MLN), and circulation” value in series [2] is recorded as “no detectable increase”. Also, in series [2] (100 mg/kg), the “integrity in the caecum and colon (gel permeation chromatography)” value is “immediately degraded”; the “integrity in the small intestine (gel permeation chromatography)” value was “remained intact in the small intestine for several hours”. Besides, the “binding to CD34+ cells in the bone marrow” value in series [3] is recorded as “binding with CD34+ cells in the bone marrow”. For the same substance, the “binding to F4/80+ macrophages in the bone marrow” value in series [4] is on record as “could also bind”. Moreover, in the series on human GP2+M cells (human PP domes, whole-mount staining), the “co-localization of FITC-RAP puncta with GP2” value was “most of which were positive for GP2”. In addition, in the series with human GP2+M cells (human distal ileum explants, 5 mg/ml, 2 h), the “transport into human PPs by M cells” value is on record as “could be transported into PPs”.

(Values after US20250302947A1, “M-cell GP2-mediated lymphatic-targeted drug carriers” (Hong Kong Baptist University, priority 2022, published 2025).)
